Results published in PMC6361588, “Exploration of CTCF post-translation modifications uncovers Serine-224 phosphorylation by PLK1 at pericentric regions during the G2/M transition”.
Changes are numbered by the printed parent chain.

T1: FLAG-CTCF(S224A)-6xHis (UniProt Q61164 1-736, S224A)
T1 sequence: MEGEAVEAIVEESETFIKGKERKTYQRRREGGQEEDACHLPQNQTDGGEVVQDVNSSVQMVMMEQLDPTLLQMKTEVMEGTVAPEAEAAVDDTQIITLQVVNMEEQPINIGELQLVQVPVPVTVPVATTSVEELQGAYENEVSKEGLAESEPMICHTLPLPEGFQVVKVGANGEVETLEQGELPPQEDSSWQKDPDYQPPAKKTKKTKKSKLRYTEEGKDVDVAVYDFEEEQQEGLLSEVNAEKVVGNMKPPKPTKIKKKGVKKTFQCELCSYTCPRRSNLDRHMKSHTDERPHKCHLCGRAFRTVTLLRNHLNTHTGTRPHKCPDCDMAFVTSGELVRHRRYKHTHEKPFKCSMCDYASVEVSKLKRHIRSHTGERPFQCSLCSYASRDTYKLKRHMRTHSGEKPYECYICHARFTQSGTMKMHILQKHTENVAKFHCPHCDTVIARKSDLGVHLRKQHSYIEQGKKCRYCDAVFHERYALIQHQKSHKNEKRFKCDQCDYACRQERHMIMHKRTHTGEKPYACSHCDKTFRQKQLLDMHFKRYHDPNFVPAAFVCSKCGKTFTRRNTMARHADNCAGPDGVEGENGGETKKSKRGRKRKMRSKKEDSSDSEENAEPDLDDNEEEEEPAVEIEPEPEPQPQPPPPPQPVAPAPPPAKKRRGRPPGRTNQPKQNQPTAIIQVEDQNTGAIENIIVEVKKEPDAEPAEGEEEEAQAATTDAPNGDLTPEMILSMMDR

T2: FLAG-CTCF(S224E)-6xHis (UniProt Q61164 1-736, S224E)
T2 sequence: T1 sequence with A224E

B1: RS14C (dsDNA)
DNA 1: CTATGCATTAGGTTTGGGTGTTATACCCGTGTAGGCCAGCAGAGGGTGTCGGATCCCAAGGAAACCAAGTTACAGACGCC
DNA 2: GGCGTCTGTAACTTGGTTTCCTTGGGATCCGACACCCTCTGCTGGCCTACACGGGTATAACACCCAAACCTAATGCATAG
B2: RS14C mutant (dsDNA)
DNA 1: B1 DNA 1 with C37T, G42C, G45T
DNA 2: B1 DNA 2 with C36A, C39G, G44A

Tests used:
FLAG-CTCF(S224A)-6xHis = target: T1, FLAG-CTCF(S224A)-6xHis; test: EMSA; 0.5, 1 or 2 pmol protein; EMSA as in Sun et al., 2013; buffer, salt, pH and temperature not given in the material; details: protein: recombinant; tags: N-terminal FLAG, C-terminal 6xHis; blunt
FLAG-CTCF(S224E)-6xHis = target: T2, FLAG-CTCF(S224E)-6xHis; test: as above; details: protein: recombinant; tags: N-terminal FLAG, C-terminal 6xHis; blunt

Binder	binding result (FLAG-CTCF(S224A)-6xHis)	binding result (FLAG-CTCF(S224E)-6xHis)
B1	binds	binds
B2	no binding	no binding
